Data: US20250270301A1 (GEN2 NEUROSCIENCE, published 2025)
Like-named read-outs stand apart in the source and are kept apart here.

Assays:
[1] = target: T1, full length recombinant human 2N4R tau (human, UniProt P10636 1-758); test: SPR MCK, IgG on Protein A, tau in flow at 100 µL/min
T1 construct: bought from rPeptide; pHrodo Red maleimide-labelled where it stands in uptake assays; also called tau1-441; full length tau

[2] = target: T1, full length recombinant human 2N4R tau; test: SPR SCK, IgG on Protein A, tau in flow
Bovine serum albumin [3] = target: T2, Bovine serum albumin (bovine, UniProt P02769 25-607); test: ELISA on 1% BSA, HEK supernatant, anti-human IgG-HRP, n=1
T2 construct: also called BSA
T2 sequence (P02769 25-607 limits assumed): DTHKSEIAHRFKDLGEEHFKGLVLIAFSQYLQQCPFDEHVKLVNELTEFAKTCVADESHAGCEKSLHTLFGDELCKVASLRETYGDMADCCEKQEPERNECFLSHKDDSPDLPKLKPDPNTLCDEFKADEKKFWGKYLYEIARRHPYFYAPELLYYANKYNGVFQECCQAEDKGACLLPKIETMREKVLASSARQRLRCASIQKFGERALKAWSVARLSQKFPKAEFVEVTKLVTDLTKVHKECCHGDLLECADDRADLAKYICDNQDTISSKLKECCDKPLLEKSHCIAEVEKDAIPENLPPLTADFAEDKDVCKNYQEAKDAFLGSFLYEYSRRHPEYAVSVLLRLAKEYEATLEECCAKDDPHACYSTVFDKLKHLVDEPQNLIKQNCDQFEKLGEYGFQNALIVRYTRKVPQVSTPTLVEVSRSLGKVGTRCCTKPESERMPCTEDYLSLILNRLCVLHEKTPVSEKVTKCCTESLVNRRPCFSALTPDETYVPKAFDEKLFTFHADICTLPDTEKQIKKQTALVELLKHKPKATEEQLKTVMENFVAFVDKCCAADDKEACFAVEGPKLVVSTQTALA

[4] = target: monomeric P301S 2N4R tau, pHrodo-labelled (human, UniProt P10636 1-758, pHrodo Red maleimide label); test: cell-based or functional assay
Sequence of monomeric P301S 2N4R tau, pHrodo-labelled (P10636 other isoform, or with tags, fused parts or gaps P301S P301S): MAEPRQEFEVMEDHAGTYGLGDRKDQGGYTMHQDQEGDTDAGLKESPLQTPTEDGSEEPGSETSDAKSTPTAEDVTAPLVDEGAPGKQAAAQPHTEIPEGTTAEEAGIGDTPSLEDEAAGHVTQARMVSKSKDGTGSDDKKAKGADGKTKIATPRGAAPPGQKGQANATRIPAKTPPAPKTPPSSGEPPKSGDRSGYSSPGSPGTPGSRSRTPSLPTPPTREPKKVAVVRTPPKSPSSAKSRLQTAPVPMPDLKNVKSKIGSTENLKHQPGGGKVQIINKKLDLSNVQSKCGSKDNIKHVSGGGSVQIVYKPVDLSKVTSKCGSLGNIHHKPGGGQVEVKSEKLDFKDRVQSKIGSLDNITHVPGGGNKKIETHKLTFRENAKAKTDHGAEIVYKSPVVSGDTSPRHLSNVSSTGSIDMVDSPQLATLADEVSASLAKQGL

[5] = target: aggregated (oligomeric) P301S 2N4R tau, pHrodo-labelled (human, UniProt P10636 1-758, pHrodo Red maleimide label); test: cell-based or functional assay
Sequence of aggregated (oligomeric) P301S 2N4R tau, pHrodo-labelled (P10636 other isoform, or with tags, fused parts or gaps P301S P301S): as above

[6] = target: T1, full length recombinant human 2N4R tau; test: SPR MCK, IgG on Protein A, tau in flow at 100 µL/min; on the border of mass transport limitation
[7] = target: T1, full length recombinant human 2N4R tau; test: ELISA on 2N4R tau (100 ng/well), HEK supernatant, anti-human IgG-HRP, n=1
Description: FIG. 7. A panel of humanised anti-tau IgG bind to full length recombinant 2N4R tau in an ELISA format. Supernatants from HEK cells transiently transfected with each IgG clone were tested at 1:100 for binding to full length recombinant 2N4R tau (solid bars). […] Binding of anti-tau hIgG1 was detected using an HRP-conjugated anti-human secondary antibody and data are shown from a representative experiment (n=1 replicate).
Antigen was removed from wells and the plates were then blocked for 1 hour at RT with 5% dried milk in 1×TBS. Blocking solution was removed, HEK293 cell supernatant (1:100 in 1% BSA/1×TBS) was added to relevant wells, and plates were incubated for 1 hour at RT with gentle shaking. Plates were then washed four times with TBS/0.1% Tween (TBST). Goat anti-human IgG-HRP antibody (Thermo Fisher Scientific, Waltham, MA, USA), diluted 1:2000 in 5% milk/TBS, was added to each well and plates were incubated for 1 hour at RT with gentle shaking before being washed four times with TBST. 3,3′,5,5′-tetramethylbenzidine (TMB) ELISA solution was added to each well and plates were incubated for 15 mins at RT. An equal volume of 1 M sulfuric acid was added to each well and OD was measured at 450 nm.

Bovine serum albumin [8] = target: T2, Bovine serum albumin; test: ELISA on 1% BSA, HEK supernatant, anti-human IgG-HRP, n=1; remark: listed apart in the source
In short: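 Wells coated with antigen, blocked 1 h RT in 5% milk/TBS; HEK293 transient-transfection supernatants applied at 1:100 in 1% BSA/TBS for 1 h RT. Bound hIgG1 detected with anti-human IgG-HRP (1:2000), TMB 15 min, acid stop, OD450; single replicate.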

T1 sequence (P10636 other isoform, or with tags, fused parts or gaps limits assumed): as the sequence (P10636 other isoform, or with tags, fused parts or gaps P301S P301S) above, with S301P counted along it

Row | Fold improvement (KD, to pVH/pVL) [1] | koff [1] [s⁻¹] | kon [1] [M⁻¹ s⁻¹] | Fold change (KD, to pVH/pVL) [2] | Kd [2] [nM] | koff [2] [s⁻¹] | kon [2] [M⁻¹ s⁻¹] | inhibition of monomeric tau uptake into human astrocytes [4] [%] | inhibition of monomeric tau uptake into human iPSC-derived neurons [4] [%] | inhibition of aggregated tau uptake into human astrocytes [5] [%] | inhibition of aggregated tau uptake into human iPSC-derived neurons [5] [%] | Kd [6] [nM] | binding result [7] | binding result (Bovine serum albumin [8]) | Binder | binding result (Bovine serum albumin [3])
1 | 10.5 | 0.00185 | 2.51e+06 | 11.1 | 0.593 | 0.0017 | 2.86e+06 | 35.6 | 81.8 | 32.6 | 65.5 | 0.736 |  |  | #44_VH4VK4_H04/pVL (antibody, V domains shown, also called VH04/pVL; Clone VH4_H04) VH: QVQLQESGPGLVKPSETLSLTCTVSGIDLSSYAMAWVRQAPGKGLEWIGCIDRRGGTFYASWVKGRFTISKDTSKTTVDLQMTSLTAEDTATYFCARDAGSFHPWGQGTLVTVSS VL: DIQMTQSPSSLSASVGDRVTITCQASQSVYDNYLAWYQQKPGQPPKLLIHAASNLASGVPSRFSGSGSGTEFTLTISSLQPDDFATYYCLGEFSCTTTDCNVFGGGTKVEIK | no binding (tested: 30 ng/ml (legend 1:100))
2 |  |  |  |  |  |  |  |  |  |  |  |  | no binding (tested: supernatant 1:100) | no binding (tested: supernatant 1:100) | #44 VH6VK1 humanised hIgG1 (antibody, V domains shown, also called VH6Vκ1) VH: QVQLQESGPGLVKPSETLSLTCTVSGIDLSSYAMSWVRQAPGKGLEWVSCIDRRGGTFYASWVKGRFTISRDNSKNTLDLQMTSLTAEDTATYYCARDSGAFDPWGQGTLVTVSS VL: QIVMTQSPSSLSASVGDRVTITCQASQSVYDNYLAWYQQKPGQPPKLLIHAASNLASRVPSRFKGSGSGTEFTLTISSLQCDDFATYYCLGEFSCTTTDCNVFGGGTEVVIK | 
3 | 5 | 0.00524 | 3.43e+06 | 5.77 | 1.14 | 0.00444 | 3.9e+06 | 35.1 | 71 | 39.1 | 55 | 1.53 |  |  | #44_VH4VK4_H06/pVL (antibody, V domains shown, also called Clone VH4_H06; #44_VH4_H06) VH: QVQLQESGPGLVKPSETLSLTCTVSGIDLSSYAMAWVRQAPGKGLEWIGVIDAAGHTFYASWVKGRFTISKDTSKTTVDLQMTSLTAEDTATYFCARDSGTFDPWGQGTLVTVSS VL: DIQMTQSPSSLSASVGDRVTITCQASQSVYDNYLAWYQQKPGQPPKLLIHAASNLASGVPSRFSGSGSGTEFTLTISSLQPDDFATYYCLGEFSCTTTDCNVFGGGTKVEIK | no binding (tested: 30 ng/ml (legend 1:100))
